From patent US20070065819A1 (Takeda / Millennium, published 2007) come the findings set out here.

Where no end group is shown, it is not given here. The star is where a group is joined. For = O=C*

The assay concerns the target T1, human FPRL1 (human, UniProt P25090 1-351).
T1 construct: Expressed in CHO cells (No. 8); also called human-derived FPRL1
T1 sequence: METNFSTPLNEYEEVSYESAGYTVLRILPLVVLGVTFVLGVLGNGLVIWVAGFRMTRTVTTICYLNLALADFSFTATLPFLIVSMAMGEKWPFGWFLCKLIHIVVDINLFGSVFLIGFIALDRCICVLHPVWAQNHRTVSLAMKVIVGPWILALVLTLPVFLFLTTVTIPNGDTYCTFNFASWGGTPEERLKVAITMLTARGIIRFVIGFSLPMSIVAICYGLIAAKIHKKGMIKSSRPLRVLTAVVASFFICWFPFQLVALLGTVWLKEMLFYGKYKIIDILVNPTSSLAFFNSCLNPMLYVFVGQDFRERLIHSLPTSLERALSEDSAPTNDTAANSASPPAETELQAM
Put plainly: competitive inhibition of binding of 125I-labeled compound to membrane fraction of human FPRL1-expressing CHO cells, filter trapping. On the procedure: Then, by reverse phase HPLC using TSKgel ODS-80TM CTR 4.6 x 100 mm column, a peak of labeled form, which was produced by the reaction, was fractionated. The fraction was mixed with an equal volume of assay buffer (50 mM Tris-HCI/pH7.5, 5 mM EDTA, 0.5 mM PMSF, 20 μg/ml leupeptine, 0.1 μtg/ml pepstatin A, 4 μg/ml E-64 (Peptide Institute), and 0.1% bovine serum albumin) and stored at −30° C. until use.
Human FPRL1-expressing CHO cells (No. 8) were cultivated, collected using PBS containing 5 mM EDTA from culture vessel, and suspended in assay buffer containing no bovine serum albumin, which is described above. Homogenization using Polytron homegenizer (Kinematica) at 18,000 rpm for 40 seconds was performed three times. After centrifugation (1000xg, 4° C., 10 minutes), supernatant was recovered. […]
Competitive inhibition test was carried out under the following conditions. […] After completely drying the filter, Microcinti 0 (Packard) was added to the filter, and a level of labeled form co-trapped with the membrane fraction on the filter was measured using Topcount (Pakard). Non-specific binding level was subtracted from each measured value. Then the ratio of reduced binding level by addition of test sample to the well with notest sample (total binding level), that is, the inhibition rate was calculated. Further, from dosage of test sample-inhibition curve, IC₅₀ was calculated (Table 1).

B1: human FPRL1 ligand P3 (hfCYOX-1(1-13)) (peptide)
peptide: For-MFADRWLFSTNHK
notes: Synthesized at Peptide Institute, Inc; also called human FPRL ligand P3
For orientation: IC50 means the concentration that gives 50% inhibition. Lower therefore signals greater potency in that assay. On to B1, for which the IC50 was 1.1 nM.

B2: porcine FPRL1 ligand P3 (pfCYOX-1(1-13)) (peptide)
peptide: For-MFVNRWLYSTNHK
notes: The purified fraction also held a Met(O) oxidant; also called porcine FPRL ligand P3; porcine intrinsic FPRL1 ligand P3
Regarding B2, the half-inhibitory concentration (IC50) amounted to 0.15 nM.
